Test results reported in patent US20130217572A1, “SPECIFIC DELIVERY OF AGROCHEMICALS” (VRIJE UNIVERSITEIT BRUSSEL, priority 2010, published 2013).
Values belong to the molecule of their own block, whether it stands above or below them.

Assays:
[1] = target: T1, potato lectin (Sigma) (potato, UniProt Q9S8M0 23-323); test: microcapsule retention; K: amine capsules, BS3 two-step, 1 ug VHH/cm2; potato lectin coat 1 ug/ml; 10% coverage
T1 construct: Bought glycoprotein, coated on ELISA plates
T1 sequence (looked up): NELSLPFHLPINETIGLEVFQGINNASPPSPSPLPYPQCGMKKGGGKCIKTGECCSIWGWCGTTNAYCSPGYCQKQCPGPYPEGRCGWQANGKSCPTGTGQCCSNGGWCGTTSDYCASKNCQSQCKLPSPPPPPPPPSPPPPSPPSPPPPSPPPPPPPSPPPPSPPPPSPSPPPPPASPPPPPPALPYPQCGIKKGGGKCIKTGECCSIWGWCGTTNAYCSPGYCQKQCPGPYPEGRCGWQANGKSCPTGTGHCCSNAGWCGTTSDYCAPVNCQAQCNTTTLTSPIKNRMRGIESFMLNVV

[2] = target: T1, potato lectin (Sigma); test: microcapsule retention; K: amine capsules, BS3 two-step, 1 ug VHH/cm2; potato lectin coat 1 ug/ml; 100% coverage
[3] = target: T1, potato lectin (Sigma); test: microcapsule retention; K: amine capsules, BS3 two-step, 1 ug VHH/cm2; potato lectin coat 10 ug/ml; 10% coverage
[4] = target: T1, potato lectin (Sigma); test: microcapsule retention; G: amine capsules, BS3 one-step, 1 ug VHH/cm2; potato lectin coat 100 ug/ml; 10% coverage
[5] = target: T1, potato lectin (Sigma); test: microcapsule retention; L: amine capsules, BS3 two-step, 0.1 ug VHH/cm2; potato lectin coat 1 ug/ml; 10% coverage
[6] = target: T1, potato lectin (Sigma); test: microcapsule retention; G: amine capsules, BS3 one-step, 1 ug VHH/cm2; potato lectin coat 100 ug/ml; 100% coverage
[7] = target: T1, potato lectin (Sigma); test: microcapsule retention; H: amine capsules, BS3 one-step, 0.1 ug VHH/cm2; potato lectin coat 10 ug/ml; 100% coverage
[8] = tested on: potato leaf surface; test: VHH binding to leaf discs (microscopy); parameters: species or system potato (variety Désirée); conditions: 5 μg/ml in PBS, anti-histidine Alexa-488 detection
Method: VHH binding to non-fixed leaf discs of potato (variety Désirée), black nightshade, grass, wheat or azalea was investigated. For comparison, binding of CBM3a to non-fixed leaf discs of potato (variety Désirée) was analyzed in parallel. Leaf discs were prepared by punching a fresh potato leaf with a 5 mm belt hole puncher tool. Leaf discs were put immediately in wells of a 96-well plate containing 200 μl per well 5% MPBS or PBS, and incubated for 30 minutes. Leaf discs were transferred to solutions containing 5 μg/ml VHH antibody fragment, respectively 5 μg/ml CBM3a in 2% MPBS or PBS and incubated for 60-90 minutes. Unbound VHH or CBM3a proteins were removed by washing three times with 2% MPBS or PBS. Bound VHH or CBM3a proteins were detected with incubation with monoclonal mouse anti-histidine antibodies directly conjugated with Alexa-488 fluorescent dye (Abd Serotec) in 1% MPBS for 1 hour. Unbound antibodies were removed by washing three times with PBS. Leaf discs were put on glass slides, covered with cover slips, and analyzed by microscopy or on a macrozoom microscope system (Nikon) or a SP5 confocal microscope system (Leica).

[9] = target: T2, potato lectin (Solanum tuberosum, UniProt Q9S8M0); test: ELISA-like assay of VHH-coupled microcapsules on antigen-coated wells; conditions: microcapsule binding assays
T2 sequence (Q9S8M0 23-323): T1 sequence (looked up)
Method: An ELISA-like assay setup was used to evaluate the interaction of VHH-coupled microcapsules to antigen-containing surfaces. ELISA plates (Maxisorp (Thermo Scientific Nunc) or high bind half area microplates (Greiner Bio-One)) were coated with gum arabic or potato lectin. Coatings were performed overnight with 100 μg/ml gum arabic or potato lectin in PBS. Control wells included blank wells or wells coated with unrelated antigens. Plates were washed three times with PBS with 0.05%-TWEEN®-20 and blocked with 5% skimmed milk in PBS for 1 to 2 hours. VHH-coupled lambda cyhalothrin-containing or Uvitex-containing microcapsules were diluted to appropriate densities in 1% skimmed milk in PBS with 0.05%-TWEEN®-20. Microcapsules were added to the antigen-coated or control wells and allowed to bind for 1 hour. Unbound microcapsules were removed by washing five times with PBS with 0.05%-TWEEN®-20. The bottoms of ELISA plate wells were analyzed for bound microcapsules on a macrozoom microscope system (Nikon). Microcapsules were counted using Volocity image analysis software (Perkin Elmer). A DAPI filter was used to visualize Uvitex microcapsules. White LED illumination and bright field pictures were used for lambda cyhalothrin microcapsules. Controls for lambda cyhalothrin-containing or Uvitex-containing microcapsules included blank microcapsules and microcapsules to which unrelated VHH were coupled.

[10] = target: T1, potato lectin (Sigma); test: ELISA, potato lectin coated at 100 ug/ml, VHH at 3 ug/ml, anti-histidine detection
Method: ELISA plates (Maxisorp, Nunc) coated with 100 μl per well 100 μg/ml potato lectin (Sigma) in PBS were coated at 4° C. overnight and coating was continued at room temperature for 1 hour on the next day. Plates were washed three times with PBS/0.05%-TWEEN®-20 and blocked with 5% skimmed milk in PBS for 1 hour. VHH (3 μg/ml) were transferred to the potato lectin-coated plates and VHH antibody fragments were allowed to bind for 1 hour at room temperature. Bound VHH were detected with sequential incubations with monoclonal mouse anti-histidine antibodies (Abd Serotec) and rabbit anti-mouse IgG whole molecule antibodies conjugated with alkaline phosphatase (RaM/AP) (Sigma) in 1% MPBS/0.05%-TWEEN®-20. Unbound antibodies were removed by washing three times with PBS/0.05%-TWEEN®-20 after each antibody incubation. The plates were washed an additional two times with PBS and 100 μl pNPP disodium hexahydrate substrate (Sigma) was added to each well and the absorbance at 405 nm was measured (see Table 2).

[11] = target: unrelated antigens; test: VHH-coupled Uvitex microcapsules retained on wells coated with unrelated antigen; 4% surface coverage
[12] = target: unrelated antigens; test: VHH-coupled Uvitex microcapsules retained on wells coated with unrelated antigen; 100% surface coverage
[13] = target: unrelated antigens; test: VHH-coupled Uvitex OB microcapsules retained on wells coated with unrelated antigen; 4% surface coverage
[14] = target: unrelated antigens; test: VHH-coupled Uvitex OB microcapsules retained on wells coated with unrelated antigen; 20% surface coverage
[15] = target: unrelated antigens; test: VHH-coupled lambda-cyhalothrin microcapsules retained on wells coated with unrelated antigen; 4% surface coverage
[16] = target: unrelated antigens; test: VHH-coupled lambda-cyhalothrin microcapsules retained on wells coated with unrelated antigen; 20% surface coverage

microcapsule counts (microcapsules) [1]: 215
microcapsule counts (microcapsules) [2]: 617
microcapsule counts (microcapsules) [3]: 197
microcapsule counts (microcapsules) [4]: 36
microcapsule counts (microcapsules) [5]: 116
microcapsule counts (microcapsules) [6]: 150
microcapsule counts (microcapsules) [7]: 780
Molecule: Control VHH

B1: VHH 3E6 (VHH)
VHH: QVQLQESGGGLVQPGGTLSLSCAASGFNVRWYGMGWFRQAPGKEREGVACISALQETTAYADSVKGRFTLSRDNPKNTLSLQMNNLQPEDTGVYYCATTDCDDSSRMTYTSYLGQGTQVTVSS
notes: also called Monovalent VHH 3E6
binding to native potato leaf surface [8]: binding leaf surface, stomata, glandular trichomes, and leaf hairs
binding to native potato leaf surface ([8]; listed as 3E6): clearly binding to trichomes, stomata and cuticle
binding to antigen-coated surfaces when coupled to a microcapsule [9]: capable of binding specifically to antigen-coated surfaces
binding to surfaces with unrelated antigens when coupled to a microcapsule [9]: No significant binding
absorbance at 405 nm [10]: 4
surface area of bound microcapsules [11]: 5.01
surface area of bound microcapsules [12]: 69.5
area of bound microcapsules [13]: 23.5
area of bound microcapsules [14]: 47.9
counts of bound microcapsules (microcapsules) [15]: 386
counts of bound microcapsules (microcapsules) [16]: 601
